These are literature values, as cited in patent US5550213A, “Inhibitors of urokinase plasminogen activator” (Rutgers, The State University of New Jersey, priority 1993, dated 1996).

A word on the Ki: it is the dissociation constant of the complex between target and ligand, obtained from inhibition or displacement.

Some results are limits rather than exact numbers.

The data set deals with urokinase (UK) (Homo sapiens, UniProt P00749). The conditions noted are these: from Turpeinen et al. (PSTI), Christensen et al. (PAI-2); serpin Ki not functionally comparable to reversible inhibitors; read-out: Ki (nM) against UK, values obtained from the literature.

B1: PAI-2: placental type PA-inhibitor, a serpin, native inhibitor of urokinase (protein, UniProt P05120 1-415, looked up)
Plasminogen activator …: MEDLCVANTLFALNLFKHLAKASPTQNLFLSPWSISSTMAMVYMGSRGSTEDQMAKVLQFNEVGANAVTPMTPENFTSCGFMQQIQKGSYPDAILQAQAADKIHSSFRSLSSAINASTGNYLLESVNKLFGEKSASFREEYIRLCQKYYSSEPQAVDFLECAEEARKKINSWVKTQTKGKIPNLLPEGSVDGDTRMVLVNAVYFKGKWKTPFEKKLNGLYPFRVNSAQRTPVQMMYLREKLNIGYIEDLKAQILELPYAGDVSMFLLLPDEIADVSTGLELLESEITYDKLNKWTSKDKMAEDEVEVYIPQFKLEEHYELRSILRSMGMEDAFNKGRANFSGMSERNDLFLSEVFHQAMVDVNEEGTEAAAGTGGVMTGRTGHGGPQFVADHPFLFLIMHKITNCILFFGRFSSP
Consider B1, for which the Ki was under 0.01 nM.
